Reference: the supplement of paper PMC9170038

Test system: MS2 coat protein
Experiment: apparent KD of MS2 coat protein; designed switch direction (-1 OFF switch, 1 ON switch): -1; higher = weaker reporter binding
In short: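 SNAP-549-labelled MS2 coat protein was titrated, doubling from 0.7 or 1.5 nM to 3 µM, over designed RNA switches transcribed on Illumina chips by stalled E. coli RNA polymerase. Runs were done without input, with 200 uM small-molecule ligand, or with an oligonucleotide input. Apparent KD is the per-design median over clusters of curve-fitted normalised fluorescence.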

[1] = Eterna round: R95, input ligand: FMN 200 uM
[2] = Eterna round: R95, input ligand: microRNA oligo, concentration not stated
[3] = Eterna round: R95, input ligand: none
[4] = input ligand: microRNA oligo, concentration not stated

| Sequence | apparent KD of MS2 coat protein [1] [nM] | apparent KD of MS2 coat protein [2] [nM] | apparent KD of MS2 coat protein [3] [nM] | apparent KD of MS2 coat protein (input ligand: FMN 200 uM) [nM] | apparent KD of MS2 coat protein (input ligand: none) [nM] | apparent KD of MS2 coat protein [4] [nM] |
| --- | --- | --- | --- | --- | --- | --- |
| GAAAAGGUAGGAUAUGCGAAAAAAAAGGGUAGAAAAAAAACACAUGAGGAUCACCCAUGUAGAAGGACCAAAAG [salish99_ex2_r3_031] (puzzle: Exclusion 2) | 26.1 | 31.2 | 32 | – | – | – |
| CCUCAACAUGAGGAUCACCCAUGUCAGGAUAUGCGAAUUUCAUCAAAAGAUGAAAUUUGCAGAAGGGACUAAGC [Omei Ex1 A33] (Eterna round: R97, puzzle: Exclusion 1) | – | – | – | 303 | 133 | – |
| ACAAGCUUAAUCAGUAUGAACAUGAGGAUCACCCAUGUAAAAGGGAAUACUAUUGGGUUUUUUAUAGCUCGUCUUAU [JR_STOV1_Sub018] (Eterna round: R97, puzzle: Sensor, turn-off variant 1) | – | – | – | 17.8 | 21.7 | – |
| UCUCUGUGAGGAUAUUGAACGACGCCGCUAACGGGCUUGCACAAGAAGGCACAUGAGGAUCACCCAUGUCCCGA [EX4 B.28] (Eterna round: R97, puzzle: Exclusion 4) | – | – | – | 29.1 | 20.7 | – |
| CCACUGUCAGGAUAUCGUGCAUAACGUUUACAAUUUAUGUGCGAGAAGGGACAUGAGGAUCACCCAUGUAAACG [Omei Ex4 A28PK3] (Eterna round: R97, puzzle: Exclusion 4) | – | – | – | 227 | 203 | – |
| AAAGAAAAGAAAGGAUAUAGCGCAGAACCGCAGCUAGAAGGUUCGGUGGGUAUCCUGUAACAUGAGGAUCACCCAUGUAAAGAG [Tire] (Eterna round: R96, puzzle: Exclusion NG 1) | – | – | – | 69.9 | 55.7 | 48.7 |
| CCUUCUCCACAGGAUAUGCUCAUCUAAUGAUGAGCAGAAGGGUGGACAUGAGGAUCACCCAUGUUUAUCAAUGG [Omei Ex6 D2] (Eterna round: R97, puzzle: Exclusion 6) | – | – | – | 589 | 428 | – |
| GUGUAGGGAGGAUAUACAUGAGGAUCACCCAUGUGAAUAAGAUAGAAUAAGAUAAAGUGUAGAAGGCUUAGUGU [Excluse me!!! 24 - Jieux - Exclusion 3] (puzzle: Exclusion 3) | 49.6 | 53 | 67.9 | – | – | – |
| AUCAUGUAAGGAUAUCUUACAUGUGACGAAAGUCACAGUUAAGAGAAGGUACAUGAGGAUCACCCAUGUAUAAC [Ex4-3: 36] (puzzle: Exclusion 4) | – | 26.6 | – | – | – | – |
| UACACGGUAGGAUAUACGUAGAUGCAGGUUCGUGUGGUGCUACAUGAGGAUCACCCAUGUAGAAGGGCCAACGU [Mod 6 R3 JL-ex2-2.29 - Jieux - Exclusion 2] (Eterna round: R97, puzzle: Exclusion 2) | – | – | – | 15.1 | 13.1 | – |
| UACCUGAGGCAAAGCUUUAGGUAAACAUGAGGAUCACCCAUGUAGGAUAUGGUAGGCUUUGCUUACCAGAAGGACAUGUUAAUU [Mat - Exclusion NG 3 - Mod of JL - D33] (Eterna round: R96, puzzle: Exclusion NG 3) | – | – | – | 215 | 59.7 | 41.9 |
| CUCUUGUUAGGAUAUCAAACUGGCAGCGGAGCUGGCAGAAGUGAGAAGGGACAUGAGGAUCACCCAUGUAAGAA [Aristeza] (puzzle: Exclusion 4) | – | 70.2 | – | – | – | – |
| GAAAGGGUAGGAUAUACGAAAAAAAAGGGUAGAAAAAAAACACAUGAGGAUCACCCAUGUAGAAGGACCAAAAG [salish99_ex2_r3_033] (puzzle: Exclusion 2) | 40.2 | 30.9 | 27.2 | – | – | – |
| ACUUAUAGAGGAUAUACAGUUUAUUACAUGAGGAUCACCCAUGUUCUUCAAUGUCCUAAAGUAGAAGGCUAAGGAA [Mat - Exclusion 5 - Eli Mod - D12] (Eterna round: R97, puzzle: Exclusion 5) | – | – | – | 18.8 | 16.2 | – |
| GACAGGCAGGCAGGAUAUGCCCGUGUGGAUGGUGUAGAAGGGCUAGCGGGUCACUUGAGGAUCACCCAAGUGGAGGGUGGCCUA [Mutated MS2 EX1.28] (Eterna round: R96, puzzle: Exclusion NG 1) | – | – | – | 51.3 | 38.2 | 31.2 |
| AGAUGUAGAUUCCGAUCCUACAUGAGGAUCACCCAUGUAGCUAGACGUGCGGGCGGCGCUCGUCGGACUACCAGUAG [salish99_TOv1_r3_096] (puzzle: Sensor v3, turn-off variant 1) | 53.5 | 69.8 | 84.6 | – | – | – |
| GGUUAUUGCAAGGAUAUGCUAUUAUUUUAUUUUGCAGAAGGUGCAACAUGAGGAUCACCCAUGUUGGAGGGUUU [JR_E6_Sub024] (puzzle: Exclusion 6) | – | 17.9 | – | – | – | – |
| GCACGGAGUGUAGGAUAUCUGUGCGAUUAGCUCAGAGAAGGACACAUGAGGAUCACCCAUGUGUAUCAACACAAUAAUCCGUGC [Eli exng1 - 071] (Eterna round: R96, puzzle: Exclusion NG 1) | – | – | – | 14.8 | 14.5 | 13.1 |

| Sequence | apparent KD of MS2 coat protein [1] [nM] | apparent KD of MS2 coat protein [2] [nM] | apparent KD of MS2 coat protein [3] [nM] | apparent KD of MS2 coat protein (input ligand: FMN 200 uM) [nM] | apparent KD of MS2 coat protein (input ligand: none) [nM] | apparent KD of MS2 coat protein [4] [nM] |
| --- | --- | --- | --- | --- | --- | --- |
| GCGGACUAGAACGUGAGUUCUGAGACAUGAGGAUCACCCAUGUAGGAUAUCGAUUCGAAACGAAUCGAGAAGGGCAUAGUCCGC [JL denovo 11] (Eterna round: R96, puzzle: Exclusion NG 3) | – | – | – | 15.2 | 17.7 | 14.7 |
| CCAGAGUGAGGAUAUGCAUAAAGGUGCUGUCCCGUGGCUUGACAUGAGGAUCACCCAUGUAGAAGGUGCGUUGU [Raonra] (puzzle: Exclusion 2) | – | 38.7 | – | – | – | – |
| UUUUUAUAUGAAGGAUAUACUUAACAUGAGGAUCACCCAUGUGGUGUUGUGAGUGAGUGAGUUUAGUAGAAGGUCAAUUAGUUU [JMF's solution 12] (Eterna round: R96, puzzle: Exclusion NG 2) | – | – | – | 363 | 209 | 157 |
| GAGGUGUUAGGAUAUCGGAGAUGGAGAAGAACGGGAUGAGCCGAGAAGGAACAUGAGGAUCACCCAUGUAGGUG [JR_Exclu4_Sub031] (puzzle: Exclusion 4) | 415 | 420 | 553 | – | – | – |
| UGCAGACGAGGAUAUAGAUUUAGAUACAUGAGGAUCACCCAUGUAUAUAUGUAUUUAGAUUUAGAAGGCGUCUGCU [E5/15-A4] (Eterna round: R97, puzzle: Exclusion 5) | – | – | – | 240 | 283 | – |
| CUUCAGUCAGGAUAUCUGCACGCUGGUGAGACCGGACGGAAGGAGAAGGGACAUGAGGAUCACCCAUGUAAAGC [Xesoar] (puzzle: Exclusion 4) | – | 15.7 | – | – | – | – |
| GUUAACGUAGGAUAUUAGUACAUGAACAUGAGGAUCACCCAUGUGAGGUGGGUCUAAGAAUAAGAAGGGCGAAGAA [EX5 #26] (Eterna round: R97, puzzle: Exclusion 5) | – | – | – | 317 | 312 | – |
| CUAGUCCGAGGAUAUAUUAUGUGAAACAUGAGGAUCACCCAUGUAAUAUGAUGGAAAUAAAUAGAAGGCGGACUAG [Mat - Exclusion 5 - JL mod - D33] (puzzle: Exclusion 5) | 25.7 | 30.9 | 30.2 | – | – | – |
| AAAACACAUGAGGAUCACCCAUGUGAGGAUAUGUUAAUUUCGGCCAAAGCCGAAAUUAACAGAAGGCACAUAAA [JR_Exclusion1_Sub019] (puzzle: Exclusion 1) | – | 46 | – | – | – | – |
| UAGAUACAUGAGGAUCACCCAUGUGAGGAUAUGAGGGUUAGCUUAAAUGGGCUGACUUUCAGAAGGCACAAGAA [JR_Ex1_Sub057] (Eterna round: R97, puzzle: Exclusion 1) | – | – | – | 94.7 | 43 | – |
| ACAUGUCAUUGAGGAUAUCGCACACAUGAGGAUCACCCAUGUAAACAGAUGCUCAUAAGUGGGUUCGAGAAGGCGAUGUACAUU [Ex NG2 #100] (Eterna round: R96, puzzle: Exclusion NG 2) | – | – | – | 318 | 117 | 119 |
| ACAUUACAUGAGGAUCACCCAUGUGAGGAUAUGGAGCGAUAGUGUCCUGUCGCGUACACCAGAAGGCGCGGGUG [1st #49] (Eterna round: R97, puzzle: Exclusion 1) | – | – | – | 242 | 271 | – |
| GAUUAUGCGAGCUUUAGGGACAUGAGGAUCACCCAUGUUCGUCUUAUUGGUCUGGAUACGCUGACAUACCUAAAUCU [JMF 97] (puzzle: Sensor v3, turn-off variant 1) | 18.6 | 28.4 | 20.9 | – | – | – |
| UAUAUAUAGUAAGGAUAUGUAAUUACUUUAUAAACAGAAGGUACUGACAUGAGGAUCACCCAUGUUUUAGUGUGGGCAUGUAGA [JMF's solution 37] (Eterna round: R96, puzzle: Exclusion NG 1) | – | – | – | – | – | 70.1 |
| UAGAUACAUGAGGAUCACCCAUGUGAGGAUAUGAAUAAGAAUAGAUAAGAUAGUAGAAUCAGAAGGCACAAUGG [Starry Exclusion 1.2] (puzzle: Exclusion 1) | 70.1 | 47.4 | 51.8 | – | – | – |
| UCUCGCUGGCGAGGAUAUCCUGUGCGGUUCCGGCUCGUGUCUGUUACAUGAGGAUCACCCAUGUGGGAGAAGGUGCCUGUGGCU [Design 94] (Eterna round: R96, puzzle: Exclusion NG 2) | – | – | – | – | – | 22 |
| GAUUAUGCGAGCUUUAGGGACAUGAGGAUCACCCAUGUUCGUCUUAUUGGUCUAGAUACACUGACAUACCUAAAUCU [JMF 58] (puzzle: Sensor v3, turn-off variant 1) | 14.8 | 19.1 | 14 | – | – | – |
